Test results: US8084418B2

Target: XptA2wi (Xenorhabdus nematophilus str Xwi)

XptB1xb + XptC1xb
dead corn earworm larvae of 8 (pDAB6026 lysate + purified XptA2wi) (dead insects (of 8)): 8
